For 1 molecule, Kd results are on record in article PMC6677171, “Subunit interactions and arrangements in the fission yeast Mis16–Mis18–Mis19 complex” (Life Science Alliance, 2019).

For this assay, the target named is Mis16 (S. pombe), full length, affinity tag removed (S. pombe), O94244. Nature of the assay: ITC; iTC200, 30°C; 50 mM Tris pH 7.5, 100 mM NaCl, 4% glycerol, 0.5 TCEP; 26 μM protein in the cell, 260 μM peptide injected.
Sequence of Mis16 (S. pombe), full length, affinity tag removed (S. pombe), O94244 (O94244 whole entry): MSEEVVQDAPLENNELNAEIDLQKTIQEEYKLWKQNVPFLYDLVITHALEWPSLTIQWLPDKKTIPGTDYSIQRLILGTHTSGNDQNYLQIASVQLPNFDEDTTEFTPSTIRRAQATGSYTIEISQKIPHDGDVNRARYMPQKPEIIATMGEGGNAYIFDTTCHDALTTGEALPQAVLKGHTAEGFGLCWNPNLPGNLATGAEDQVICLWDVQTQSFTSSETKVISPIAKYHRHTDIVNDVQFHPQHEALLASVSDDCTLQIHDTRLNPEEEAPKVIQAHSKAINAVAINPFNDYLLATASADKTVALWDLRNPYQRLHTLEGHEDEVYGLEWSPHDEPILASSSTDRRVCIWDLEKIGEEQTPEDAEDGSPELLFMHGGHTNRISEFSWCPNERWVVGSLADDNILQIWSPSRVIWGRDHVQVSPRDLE

LHNRAFLRRNVRAVKM (modifications not checked) [Mis19 C-terminal peptide (residues 97–112) with V101 mutated, O42995 97-112] registered a dissociation constant (Kd) of 51 nM. This lies in the double-digit nanomolar range.
